For the assay, the target named is T1, β2m of the single-chain construct (Homo sapiens (Human)., UniProt P61769).
T1 construct: β2-microglobulin; In the cryo-EM sample it is the middle part of m3; also called B2m; source: part of the single-chain construct m3
Kind of assay: cryo-EM structure; single-chain P2R-linker-β2m-linker-B∗73:01 copurified with Fabs B.1 and B.8; Hepes-buffered saline pH 7.2, about 0.07 mM fluorinated octyl maltoside; 3.1 Å. Conditions: both partners purified.

T1 sequence (P61769 21-119): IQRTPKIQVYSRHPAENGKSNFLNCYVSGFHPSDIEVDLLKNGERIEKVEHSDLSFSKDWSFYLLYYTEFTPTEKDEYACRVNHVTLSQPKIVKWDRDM

B1: Fab B.1 (Fab, V domains shown)
VH: EVQLVESGGGLVQPGGSLRLSCAASGFNVSYYSIHWVRQAPGKGLEWVASISPYSGSTSYADSVKGRFTISADTSKNTAYLQMNSLRAEDTAVYYCARYSYGNSWSYDPYYGAMDYWGQGTLVTVSS
VL: DIQMTQSPSSLSASVGDRVTITCRASQSVSSAVAWYQQKPGKAPKLLIYSASSLYSGVPSRFSGSRSGTDFTLTISSLQPEDFATYYCQQYYWAPITFGQGTKVEIK
notes: synthetic Fab; model deposited in PDB 8TNJ (constant domain portion not visible in the map)
On to B1, for which the binding result is listed as “binds”.
